The series addresses CsERF061 (Citrus sinensis? (blood orange), UniProt A0ACB8LNY5 1-312). Kind of series: EMSA. On the technique in general: Mobility shift assays separate free from complexed probe on a gel.

The record followed here is PMC13087489.

B1: RE-mut-probe (dsDNA)
DNA 1: TGTCAAAAAAAAAAGCCACAAGGCAAATTCAAGTTG
DNA 2: CAACTTGAATTTGCCTTGTGGCTTTTTTTTTTGACA
On to B1, for which the binding result was “no binding”.
